Results from US20200325214A1 (NUMAB THERAPEUTICS, published 2020).

Columns and labels:
cynomolgus serum albumin [1] = target: T1, cynomolgus serum albumin (cynomolgus, UniProt A2V9Z4 25-608); experiment: SPR; upper end tied to cynomolgus SA at pH 5.5 by the KD values of Table 3
T1 construct: Amine-coupled to the SPR chip; also called cynomolgus SA
Description: (§1) Affinity of the humanized scFvs to serum albumin (SA) of the different species was determined by SPR measurements using a MASS-1 device (Sierra Sensors). SA was directly coupled to a high capacity amine sensor chip (Sierra Sensors) using amine coupling chemistry. […] The assay was run twice at different pH values: once in a 1×PBS-Tween buffer at pH 5.5 and another time in a 1×PBS-Tween buffer at pH 7.4.

cynomolgus serum albumin [2] = target: T1, cynomolgus serum albumin; experiment: SPR (MASS-1), SA amine-coupled, scFv analyte, pH 7.4
Description: as §1

human serum albumin [3] = target: T2, human serum albumin (human, UniProt P02768 25-609); experiment: as above
T2 construct: Amine-coupled to the SPR chip; also called HSA; human SA
Description: as §1

rat serum albumin [4] = target: T3, rat serum albumin (rat, UniProt P02770 25-608); experiment: SPR, SA coupled to the chip, scFv as analyte
T3 construct: Amine-coupled to the SPR chip; also called rat SA; rodent SA
Description: as §1

mouse serum albumin [5] = target: T4, mouse serum albumin (mouse, UniProt P07724 25-608); experiment: SPR, SA coupled to the chip, scFv as analyte
T4 construct: Amine-coupled to the SPR chip; also called mouse SA; rodent SA
Description: as §1

cynomolgus serum albumin [6] = target: T1, cynomolgus serum albumin; experiment: SPR (MASS-1), SA amine-coupled, scFv analyte, pH 5.5
Description: as §1

human serum albumin [7] = target: T2, human serum albumin; experiment: as above
Description: as §1

human serum albumin [8] = target: T2, human serum albumin; experiment: SPR; lower end tied to human SA at pH 5.5 by the KD values of Table 3
Description: as §1

[9] = target: T5, marmoset (purified) serum albumin (marmoset); experiment: SPR (MASS-1), SA amine-coupled, scFv analyte, pH 5.5
T5 construct: Amine-coupled to the SPR chip; also called marmoset SA
Description: as §1

human serum albumin [10] = target: T2, human serum albumin; experiment: SPR; species not given, human SA taken from Table 3
rat serum albumin [11] = target: T3, rat serum albumin; experiment: SPR (MASS-1), SA amine-coupled, scFv analyte, pH 5.5
Description: as §1

mouse serum albumin [12] = target: T4, mouse serum albumin; experiment: as above
Description: as §1

rat serum albumin [13] = target: T3, rat serum albumin; experiment: SPR (MASS-1), SA amine-coupled, scFv analyte, pH 7.4
Description: as §1

mouse serum albumin [14] = target: T4, mouse serum albumin; experiment: as above
Description: as §1

Row | Kd (cynomolgus serum albumin [2]) | koff (cynomolgus serum albumin [2]) | kon (cynomolgus serum albumin [2]) | Kd (human serum albumin [3]) | koff (human serum albumin [3]) | kon (human serum albumin [3]) | Kd (cynomolgus serum albumin [6]) | koff (cynomolgus serum albumin [6]) | kon (cynomolgus serum albumin [6]) | Kd (human serum albumin [7]) | koff (human serum albumin [7]) | kon (human serum albumin [7]) | Kd [9] | koff [9] | kon [9] | Binder | other results
1 | 0.711 nM | 0.000302 s⁻¹ | 424000 M⁻¹ s⁻¹ | 1.07 nM | 0.000411 s⁻¹ | 384000 M⁻¹ s⁻¹ | 0.387 nM | 0.000231 s⁻¹ | 598000 M⁻¹ s⁻¹ | 0.684 nM | 0.000308 s⁻¹ | 450000 M⁻¹ s⁻¹ | 0.674 nM | 0.0026 s⁻¹ | 3.86e+06 M⁻¹ s⁻¹ | 19-01-H04-sc02 (scFv, V domains shown, also called clone 19-01-H04 STR graft; humanized scFv) VH: EVQLVESGGGLVQPGGSLRLSCAASGFSLSSNAMGWVRQAPGKGLEYIGIISVGGFTYYASWAKGRFTISRDNSKNTVYLQMNSLRAEDTATYFCARDRHGGDSSGAFYLWGQGTLVTVSS VL: DIQMTQSPSSLSASVGDRVTITCQSSESVYSNNQLSWYQQKPGQPPKLLIYDASDLASGVPSRFSGSGSGTDFTLTISSLQPEDFATYYCAGGFSSSSDTAFGGGTKLTVLG | fold improvement of affinity of the STR graft over the CDR graft 19-01-H04-sc01 (cynomolgus serum albumin [1]): 20 to 300 fold; binding result (rat serum albumin [4]): no binding; binding result (mouse serum albumin [5]): no binding; fold improvement of affinity of the STR graft over the CDR graft 19-01-H04-sc01 (human serum albumin [8]): 20 to 300 fold
2 | 1.3 nM | 0.000433 s⁻¹ | 334000 M⁻¹ s⁻¹ | 0.6 nM | 0.000194 s⁻¹ | 323000 M⁻¹ s⁻¹ | 0.75 nM | 0.000253 s⁻¹ | 338000 M⁻¹ s⁻¹ | 0.373 nM | 0.000115 s⁻¹ | 307000 M⁻¹ s⁻¹ | 3.77 nM | 0.00128 s⁻¹ | 338000 M⁻¹ s⁻¹ | 23-13-A01-sc02 (scFv, V domains shown, also called clone 23-13-A01 STR graft; humanized scFv) VH: EVQLVESGGGLVQPGGSLRLSCAASGFSFSSSYWICWVRQAPGKGLEWVGCVFTGDGTTYYASWAKGRFTISRDNSKNTVYLQMNSLRAEDTATYFCARPVSVYYYGMDLWGQGTLVTVSS VL: DVVMTQSPSSLSASVGDRVTITCQASQIISSRSAWYQQKPGQPPKLLIYQASKLASGVPSRFSGSGSGTDFTLTISSLQPEDFATYYCQCTYIDSNFGAFGGGTKLTVLG | fold improvement of affinity of the STR graft over the CDR graft 23-13-A01-sc01 (human serum albumin [10]): ~3 fold; Kd (rat serum albumin [11]): 18.7 nM; koff (rat serum albumin [11]): 0.00437 s⁻¹; kon (rat serum albumin [11]): 234000 M⁻¹ s⁻¹; Kd (mouse serum albumin [12]): 4.86 nM; koff (mouse serum albumin [12]): 0.000933 s⁻¹; kon (mouse serum albumin [12]): 192000 M⁻¹ s⁻¹; Kd (rat serum albumin [13]): 231 nM; koff (rat serum albumin [13]): 0.0245 s⁻¹; kon (rat serum albumin [13]): 106000 M⁻¹ s⁻¹; Kd (mouse serum albumin [14]): 32.2 nM; koff (mouse serum albumin [14]): 0.00469 s⁻¹; kon (mouse serum albumin [14]): 146000 M⁻¹ s⁻¹
